In experiment [1] the target is FMAL-labeled RLC-exchanged full-length cardiac myosin (porcine (ventricles) | human) (UniProt P79293). Briefly: FRET or BRET. Background: Bioluminescence resonance energy transfer reports proximity on the nanometre scale.
Experiment [2] deals with FMAL-labeled F-actin (rabbit) (UniProt P68135). In words: FRET or BRET.
Experiment [3] shares this target. In words: co-sedimentation.
Experiment [4] addresses FMAL-labeled F-actin (rabbit skeletal muscle) (rabbit) (UniProt P68135). Briefly: FRET or BRET.

For the substance “C0-C2^(cys249, E334K), PKA-phosphorylated (domain or fragment)”, in experiment [1], the FLT-FRET at 2.5 μM relative to WT (relative to WT) came out at 1.7.
In experiment [2], “C0-C2^(cys249, L349R) (domain or fragment)” displayed an FLT-FRET at 2.5 μM relative to WT (relative to WT) of 1.1.
Substance “C0-C2^(cys249, L349R), PKA-phosphorylated (domain or fragment)” had an FLT-FRET at 2.5 μM relative to WT (relative to WT) in experiment [2] of 1.31.
Turning to “C0-C2^(cys330, E334K), PKA-phosphorylated (domain or fragment)”, the FLT-FRET at 2.5 μM relative to WT (relative to WT) in experiment [1] amounted to 2.
The same measure, in the same setting: to “C0-C2^(cys330, L349R) (domain or fragment)” belongs 1.6.
“C0-C2^(cys330, R282W) (domain or fragment)”: the FLT-FRET at 2.5 μM relative to WT (relative to WT) in experiment [2] came out at 1.1.
With C0-C2^cys85 (domain or fragment), the EC50 – broadly, the concentration that produces a half-maximal response – turned out to be 1.4 µM in experiment [2] and 9 µM in experiment [1].
Take “C0-C2^cys85, PKA-phosphorylated (domain or fragment)”: in experiment [3], the fold increase of EC50 upon phosphorylation was 1.1 fold. In experiment [2], the fold change of EC50 upon phosphorylation came out at 2.9 fold and the reduction of FRET at 2.5 μM upon phosphorylation amounted to 52%.
On to C0-C2^cys249 (domain or fragment), for which the concentration for a half-maximal effect (EC50) in experiment [2] was determined as 3 µM; in experiment [1], 3.4 µM.
On to “C0-C2^cys249, PKA-phosphorylated (domain or fragment)”, for which the fold increase of EC50 upon phosphorylation in experiment [3] was determined as 1.6 fold. In experiment [2], this substance had a fold change of EC50 upon phosphorylation of 1.7 fold and a reduction of FRET at 2.5 μM upon phosphorylation of 52%.
C0-C2^cys330 (domain or fragment): the EC50 in experiment [2] amounted to 6.3 µM; in experiment [1] it was 6.9 µM.
In experiment [4], “TMR-C0-C2^(cys249, L352P) (domain or fragment)” gave an EC50 of 1.31 µM. This counts as single-digit micromolar.
Same read-out and setting: with TMR-C0-C2^cys249 (domain or fragment) the figure was 2.12 µM.

The values are drawn from article PMC10872421.
